Experimental data published in patent KR20230078152A (dated 2023).

Target: human PSMA (prostate-specific membrane antigen) expressed on LNCaP cells (human, UniProt Q04609 1-750)
Assay: cell-based or functional assay

human PSMA (prostate-specific membrane antigen) expressed on LNCaP cells, sequence (Q04609 whole entry): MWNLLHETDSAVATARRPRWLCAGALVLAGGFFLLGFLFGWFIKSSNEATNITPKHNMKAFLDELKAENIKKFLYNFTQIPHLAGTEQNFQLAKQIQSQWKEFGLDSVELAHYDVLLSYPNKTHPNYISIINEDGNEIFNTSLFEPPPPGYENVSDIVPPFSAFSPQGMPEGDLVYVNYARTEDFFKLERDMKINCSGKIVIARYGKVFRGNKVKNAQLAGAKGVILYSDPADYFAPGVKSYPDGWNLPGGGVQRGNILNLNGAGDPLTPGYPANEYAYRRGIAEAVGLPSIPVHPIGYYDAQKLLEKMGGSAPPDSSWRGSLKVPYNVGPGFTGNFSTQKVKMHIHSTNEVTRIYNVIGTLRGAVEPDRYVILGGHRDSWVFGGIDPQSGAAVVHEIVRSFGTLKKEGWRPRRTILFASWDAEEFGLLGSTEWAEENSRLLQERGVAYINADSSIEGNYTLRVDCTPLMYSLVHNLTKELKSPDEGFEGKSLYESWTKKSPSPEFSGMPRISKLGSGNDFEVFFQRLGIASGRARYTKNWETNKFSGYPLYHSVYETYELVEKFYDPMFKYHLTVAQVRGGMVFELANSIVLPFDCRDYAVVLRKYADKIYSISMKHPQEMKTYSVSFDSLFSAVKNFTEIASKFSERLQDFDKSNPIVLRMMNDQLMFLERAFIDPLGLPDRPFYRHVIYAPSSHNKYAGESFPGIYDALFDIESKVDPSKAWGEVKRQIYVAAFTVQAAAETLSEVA

B1: PSMA 타겟 항체-약물 접합체 (PSMA target antibody-MMAE conjugate) (other, DAR 8.36)
VH: EVQLQQSGPELVKPGASVKISCKASGYAFSSSWMNWVKQRPGQGLEWIGRIYPADGDTNYNGKFKGKATLTADKSSSTAYMQLSSLTSVDSAVYFCARCGWDGGVYYAMDYWGQGTSVTVSS
VL: DIVMTQSPASLAVSLGQRATISCRASKSVTTSGYSYMHWYQQKPGQPPKLLIYLASNLESGVPARFSGSGSGTDFTLNIHPVEEEDAATYYCQHSRELPRTFGGGTKLEIK
modifications: MMAE conjugated through a VC-PAB linker (antibody MMAE Conjugation Kit), DAR 8.36; sites not stated
cytotoxicity on LNCaP cells (Cell counting kit-8, 72 h), IC50: 500 pM
